The values that follow come from patent US20250302875A1 (AVENCELL EUROPE, published 2025).

The target of assay [1] is T1, IL13Rα2 on cells (recombinant K562-IL13Rα2 cell line, U251-MG cells, PC3 cells) (human, UniProt Q14627 27-380).
T1 construct: whole, on cells; not repeated for the recombinant cell line; also called Interleukin-13 receptor subunit alpha-2
T1 sequence (looked up): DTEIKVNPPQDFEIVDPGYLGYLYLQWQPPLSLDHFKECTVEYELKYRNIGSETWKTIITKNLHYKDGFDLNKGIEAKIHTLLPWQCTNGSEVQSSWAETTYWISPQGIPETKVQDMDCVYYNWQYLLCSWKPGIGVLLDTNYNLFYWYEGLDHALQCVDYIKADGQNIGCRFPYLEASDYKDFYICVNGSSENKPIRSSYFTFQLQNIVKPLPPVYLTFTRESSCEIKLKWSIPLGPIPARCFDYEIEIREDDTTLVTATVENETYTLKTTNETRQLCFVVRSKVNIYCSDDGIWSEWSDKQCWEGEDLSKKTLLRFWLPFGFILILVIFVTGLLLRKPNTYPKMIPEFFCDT
Put plainly: flow cytometry cellular binding assay on recombinant K562-IL13Rα2 cells, two-step immunostaining (anti-His-tag-PE), absolute MFI against TM concentration, four-parameter fit. As for the experimental part: (§1) Cellular binding of IL13-based targeting modules (TM) was tested on recombinant K562-IL13Rα2 cell line (FIG. 2A), recombinant K562-IL13Rα1 cell line (FIG. 2B) and U251-MG cells (FIG. 2C) (derived from a malignant glioblastoma tumor by explant technique). The affinity of TMs was analyzed by FACS in a two-step immunostaining. The TMs were titrated on an AML cell line with recombinant overexpression of IL13Rα2 or IL13Rα1 or U251-MG cells, respectively, and then detected by a mouse anti-His-tag antibody conjugated to phycoerythrin. A dose-response curve was obtained when the geometric mean fluorescence (MFI) was plotted against the TM concentration.
(§2) The data for the cellular binding of IL13-based TMs on the IL13Rα2-expressing AML cell line and U251-MG cells were fitted using a four-parameter model with a variable slope for sigmoidal curves.
Background: Flow cytometry measures light scatter and fluorescence of single cells or particles in a stream.

The target in assay [2] is T2, soluble recombinant IL13Rα2 ectodomain (human, UniProt Q14627 27-343).
T2 construct: extracellular domain
T2 sequence (looked up): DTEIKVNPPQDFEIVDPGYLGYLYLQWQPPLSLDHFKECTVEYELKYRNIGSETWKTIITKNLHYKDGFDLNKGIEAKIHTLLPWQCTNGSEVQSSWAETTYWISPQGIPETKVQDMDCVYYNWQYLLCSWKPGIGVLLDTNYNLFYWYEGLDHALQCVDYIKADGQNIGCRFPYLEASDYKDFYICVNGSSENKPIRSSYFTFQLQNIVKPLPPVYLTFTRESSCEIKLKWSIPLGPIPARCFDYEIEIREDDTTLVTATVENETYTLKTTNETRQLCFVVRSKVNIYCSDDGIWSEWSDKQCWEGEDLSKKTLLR
Put plainly: SPR, Biacore X100, 1:1 binding model. As for the experimental part: Data obtained by surface plasmon resonance were fitted with a “1:1 binding” model using the Biacore X100 Evaluation Software (V2.0.1). The following parameters were calculated from this model: association rate (kₐ), dissociation rate (kd) and the dissociation constant at equilibrium (KD).

Assay [3] has as its target T3, IL13Rα1 on recombinant K562-IL13Rα1 cell line (UniProt P78552 22-427).
T3 construct: whole, on cells
T3 sequence (looked up): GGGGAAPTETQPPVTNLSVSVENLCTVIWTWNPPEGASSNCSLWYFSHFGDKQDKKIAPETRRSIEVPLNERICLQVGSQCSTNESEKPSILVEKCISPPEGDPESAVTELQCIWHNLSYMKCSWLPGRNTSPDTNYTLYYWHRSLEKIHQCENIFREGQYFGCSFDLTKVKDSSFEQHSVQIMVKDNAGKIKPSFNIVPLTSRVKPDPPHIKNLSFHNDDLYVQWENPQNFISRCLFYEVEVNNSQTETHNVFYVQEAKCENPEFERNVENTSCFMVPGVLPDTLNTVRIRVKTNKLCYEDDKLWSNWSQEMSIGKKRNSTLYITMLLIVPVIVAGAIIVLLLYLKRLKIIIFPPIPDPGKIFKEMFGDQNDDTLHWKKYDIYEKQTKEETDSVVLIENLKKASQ
Put plainly: flow cytometry cellular binding assay on recombinant K562-IL13Rα1 cells, two-step immunostaining (anti-His-tag-PE), absolute MFI against TM concentration. As for the experimental part: as §1

For assay [4], the target named is T1, IL13Rα2 on cells (recombinant …). Put plainly: flow cytometry cellular binding assay on U251-MG cells, two-step immunostaining (anti-His-tag-PE), absolute MFI against TM concentration, four-parameter fit. As for the experimental part:
as §1, §2

Assay [5] addresses T2, soluble recombinant IL13Rα2 ectodomain. Nature of the assay: SPR, Biacore X100, two-state reaction model, Kd1. As for the experimental part: (§3) Data obtained by surface plasmon resonance were fitted with a “two-state reaction” model using the Biacore X100 Evaluation Software (V2.0.1). The following parameters were calculated from this model: association rate (kₐ), dissociation rate (kd) and the dissociation constant at equilibrium (KD).
(In SPR one partner is held on a chip, and binding of the other changes the refractive index at the surface.)

Assay [6] has as its target T1, IL13Rα2 on cells (recombinant …). Nature of the assay: flow cytometry cellular binding, U251-MG cells, mean. As for the experimental part: (§4) The data were fitted using a four-parameter model with a variable slope for sigmoidal curves. The EC50 value obtained from this model can be interpreted as a representative value of the TM affinity for the cells overexpressing the target receptor.
The mean values were calculated from the results obtained from two independent experiments with three technical replicates each (see Tab. 1).

For assay [7], the target named is T2, soluble recombinant IL13Rα2 ectodomain. Nature of the assay: SPR, Biacore X100, two-state reaction model. As for the experimental part: as §3
For assay [8], the target named is T1, IL13Rα2 on cells (recombinant …). Put plainly: flow cytometry, two-step immunostaining, PC3 cells.
Assay [9] concerns the target T2, soluble recombinant IL13Rα2 ectodomain. Nature of the assay: SPR, Biacore X100, two-state reaction model, Ka1. As for the experimental part:
as §3

Assay [10] addresses T1, IL13Rα2 on cells (recombinant …). Put plainly: cell-based or functional assay.
In assay [11] the target is T3, IL13Rα1 on recombinant K562-IL13Rα1 …. Nature of the assay: flow cytometry cellular binding assay on recombinant K562-IL13Rα1 cells, two-step immunostaining, MFI against TM concentration. As for the experimental part: as §1, §4
The target in assay [12] is T1, IL13Rα2 on cells (recombinant …). Put plainly: cell-based or functional assay. The source holds these as a separate data set.
Assay [13] has the same target. Nature of the assay: flow cytometry, two-step immunostaining, K562-IL13Rα2 cells. As for the experimental part:
as §1, §4

B1: TM-IL13-E11Y-G30Y (ligand, not shown: small tags and cut ends)
chain (part 1 of 2): GPVPPSTALRYLIEELVNITQNQKAPLCNYSMVWSINLTAGMYCAALESLINVSGCSAIEKTQRMLSGFCPHKVSAGQFSSLHVRDTKIEVAQFVKDLLLHLKKLFREGRFN
chain (part 2 of 2): KPLPEVTDEYHHHHHHHH
With B1, the EC50 (in general, the concentration at which the effect is half-maximal) in [1] was 26 nM. In [2], the Kd (in general, the concentration at which binding is half-saturated) worked out at 30 nM; the koff (as a rule, the first-order rate constant of dissociation) came out at 0.00049 s⁻¹; the kon (as a rule, the rate constant with which the complex forms) stood at 26000 M⁻¹ s⁻¹.

B2: TM-IL13-E11Y-M32A (ligand, not shown: small tags and cut ends)
chain (part 1 of 2): GPVPPSTALRYLIEELVNITQNQKAPLCNGSAVWSINLTAGMYCAALESLINVSGCSAIEKTQRMLSGFCPHKVSAGQFSSLHVRDTKIEVAQFVKDLLLHLKKLFREGRFN
chain (part 2 of 2): KPLPEVTDEYHHHHHHHH
On to B2, for which, in [3], the binding result is “no binding (tested: about 5x10^-6 M)”. The EC50 in assay [4] was 1.08 nM. Further, in assay [1], the EC50 was 14.1 nM. Further, in [2], the Kd worked out at 21 nM, the koff turned out to be 0.00073 s⁻¹ and the kon turned out to be 35000 M⁻¹ s⁻¹.

B3: TM-mu33A1-scFv (scFv)
scFv: EFQVQLQQPGAELVKPGASVKLSCKASGYTFTSHWIHWVKERPGRGLEWIGRIEPNSGGTLYNEKFKTKATLTVDKPSSTAYMQINSLTSEDFAVYYCARWREFDFFDYWGQGTTLTVSSGGGGSGGGGSGGGGSDIVLTQSPATLSVTPGDSVSLSCRASQSISNNLHWYQQKSHESPRLLIKYASQSISGIPSRFSGSGSGTDFTLSISSVETEDFGMYFCQQSNRWPYTFGGGTKLEIKAAAKPLPEVTDEYARGGPGGGGSHHHHHHHH
notes: also called TM based on the parental murine clone 33A1; mu33A1-based TM
With B3, the koff in [5] was 0.0024 s⁻¹. The figures for the EC50 in [6], in assay [8] and in [13] were 2.5 nM, 1 nM and 1.68 nM, respectively. In addition, in assay [7], the Kd worked out at 1.39 nM. Besides, the kon in assay [9] amounted to 871000 M⁻¹ s⁻¹. Also, the “EC50 (M), mean, lysis of U251-MG cells by UniCAR T cells” value in [10] was 2.8e-11 M. In addition, the binding result in [11] was “no binding (tested: 1x10^-6 M)”. Moreover, in [12], the “EC50 of lysis of K562-IL13Rα2 cells by switchable CAR T cells” value came to 0.0068 nM. Also, in assay [12], the “EC50 of lysis of PC3 cells by switchable CAR T cells” value stood at 0.048 nM.
